Measurements published in publication PMC7821112 (The New Phytologist, 2020).
Each block holds one molecule with its values, some of them ahead of it.

Key:
[1] = target: GST‐tagged Ghd7 (Grain number, plant height and heading‐date7) (rice (Oryza sativa)) (UniProt E5RQA1); test: pull-down
[2] = target: T1, GST‐tagged Ghd7 (Grain number, plant height and heading‐date7) (rice (Oryza sativa), UniProt E5RQA1 1-257); test: pull-down
T1 sequence (looked up): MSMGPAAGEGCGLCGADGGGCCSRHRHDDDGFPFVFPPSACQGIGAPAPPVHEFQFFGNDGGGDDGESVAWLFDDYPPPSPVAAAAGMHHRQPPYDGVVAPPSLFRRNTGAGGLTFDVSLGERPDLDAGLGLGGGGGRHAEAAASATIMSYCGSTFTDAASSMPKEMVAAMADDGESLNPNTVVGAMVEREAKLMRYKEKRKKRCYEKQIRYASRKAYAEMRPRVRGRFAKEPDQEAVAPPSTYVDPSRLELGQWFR

stoichiometry N [1]: 1
Molecule: MBP‐tagged Hd1 (Heading date 1) (from UniProt Q9FDX8 1-395) (natural protein)

stoichiometry N [2]: 1
B1: MBP‐tagged DTH8 (Days‐to‐heading on chromosome 8) (natural protein, rice (Oryza sativa), UniProt Q0J7P4 1-297, looked up)
chain: MKSRKSYGHLLSPVGSPPLDNESGEAAAAAAAGGGGCGSSAGYVVYGGGGGGDSPAKEQDRFLPIANVSRIMKRSLPANAKISKESKETVQECVSEFISFVTGEASDKCQREKRKTINGDDLLWAMTTLGFEAYVGPLKSYLNRYREAEGEKADVLGGAGGAAAARHGEGGCCGGGGGGADGVVIDGHYPLAGGLSHSHHGHQQQDGGGDVGLMMGGGDAGVGYNAGAGSTTTAFYAPAATAASGNKAYCGGDGSRVMEFEGIGGEEESGGGGGGGERGFAGHLHGVQWFRLKRNTN
